From patent publication US20210060185A1

Target: dGvpC (Ana GvpC with SG-… at the C-terminus, encoded in the acoustic sensor gene for ClpXP) (Anabaena flos-aquae) (UniProt P09413)
Experiment: cell-based or functional assay

dGvpC (Ana GvpC with SG-… at the C-terminus, encoded in the acoustic sensor gene for ClpXP) (Anabaena flos-aquae), sequence (P09413 1-193, tags or fused parts left off): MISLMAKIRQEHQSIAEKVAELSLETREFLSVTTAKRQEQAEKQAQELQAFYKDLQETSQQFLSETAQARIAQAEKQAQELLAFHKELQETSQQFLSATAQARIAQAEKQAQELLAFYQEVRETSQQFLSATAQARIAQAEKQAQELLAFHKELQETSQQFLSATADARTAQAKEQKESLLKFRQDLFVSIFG

## ClpXP of E. coli Nissle 1917 (native, or ClpX and ClpP cloned from the Nissle genome under the pBAD promoter) (from UniProt P0A6H1 2-424; P0A6G7 15-207) (enzyme)
  hydrostatic collapse pressure midpoint of intact WT Nissle cells, ASGClpXP against ARGWT: 160 kPa
  hydrostatic collapse pressure midpoint of ΔClpXP Nissle cells with against without ClpXP induction: 160 kPa
  nonlinear ultrasound contrast of live WT Nissle cells, ASGClpXP against ARGWT: 13 dB
  nonlinear ultrasound contrast of ΔClpXP Nissle cells with against without ClpXP induction: 6.7 dB
